What all share (experiment): SEC
In assay [1] the target is Rs4081 soluble spike ectodomain (2P, GSAS, T4 fibritin trimerization motif) (Rs4081 (sarbecovirus) | bacteriophage T4).
The target of assay [2] is Pang17 soluble spike ectodomain (2P, GSAS, T4 fibritin trimerization motif) (pang17 (sarbecovirus of pangolins) | bacteriophage T4).
Assay [3] deals with BM48-31 soluble spike ectodomain (2P, GSAS, T4 fibritin trimerization motif) (BM48-31 (sarbecovirus) | bacteriophage T4).
The target of assay [4] is Rf1 soluble spike ectodomain (2P, GSAS, T4 fibritin trimerization motif) (Rf1 (sarbecovirus) | bacteriophage T4).
Assay [5] addresses Yun11 soluble spike ectodomain (2P, GSAS, T4 fibritin trimerization motif) (Yun11 (sarbecovirus) | bacteriophage T4).
For assay [6], the target named is BtKY72 soluble spike ectodomain (2P, GSAS, T4 fibritin trimerization motif) (BtKY72 (sarbecovirus) | bacteriophage T4).
Assay [7] concerns the target SARS-CoV-1 soluble spike ectodomain (2P, GSAS, T4 fibritin trimerization motif) (SARS-CoV-1 | bacteriophage T4) (UniProt P59594).
In assay [8] the target is RmYN02 soluble spike ectodomain (2P, GSAS, T4 fibritin trimerization motif) (RmYN02 (sarbecovirus) | bacteriophage T4).

Here are results for eight substances from paper PMC9435400.

For the substance “Rs4081 soluble spike ectodomain (2P, GSAS, T4 fibritin trimerization motif) (domain or fragment)”, the stoichiometry N in assay [1] was 3.

Consider “Pang17 soluble spike ectodomain (2P, GSAS, T4 fibritin trimerization motif) (domain or fragment)”, for which the stoichiometry N in assay [2] came out at 3.

The substance “BM48-31 soluble spike ectodomain (2P, GSAS, T4 fibritin trimerization motif) (domain or fragment)” showed a stoichiometry N in assay [3] of 3.

In turn, “Rf1 soluble spike ectodomain (2P, GSAS, T4 fibritin trimerization motif) (domain or fragment)” showed a stoichiometry N in assay [4] of 3.

With “Yun11 soluble spike ectodomain (2P, GSAS, T4 fibritin trimerization motif) (domain or fragment)”, in assay [5], the stoichiometry N amounted to 3.

In turn, “BtKY72 soluble spike ectodomain (2P, GSAS, T4 fibritin trimerization motif) (domain or fragment)” yielded a stoichiometry N in assay [6] of 3.

On to “SARS-CoV-1 soluble spike ectodomain (2P, GSAS, T4 fibritin trimerization motif) (from UniProt P59594 14-1190) (domain or fragment)”, for which, in assay [7], the stoichiometry N was determined as 3.

On to “RmYN02 soluble spike ectodomain (2P, GSAS, T4 fibritin trimerization motif) (domain or fragment)”, for which, in assay [8], the stoichiometry N came to 3.
